From the nanobody polyreactivity screen of Harvey et al. (2022)

Assay: yeast display, Sf9 membrane polyspecificity reagent, FACS + sequencing; frameworks hold sequencing errors
Outline: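 Polyreactivity labels are assigned by the sorting gate from which each nanobody was recovered. The gates were low and high (top ~1%), set on anti-HA fluorescence for expression and streptavidin fluorescence for reagent binding. Before sorting, galactose-induced (36–48 hours) yeast display cells were stained for 1 hour at 4 °C with 10% biotinylated, detergent-solubilized Sf9 membrane reagent.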

Sequence	polyreactivity (PSR sort gate)
QVQLVESGGGLVQPGGSLRLSCAASGRIFGWYARGWYRPAPGKERELVAAISRGGTRTNYADSVKGRFTISRDNAKNTVYLQMNSLKPEETAVYYCAARRYSRDFDYWGQGTQVTVSS	high polyreactivity
QVQLVESGGGLVQPGGSLRLSCAASGRIQRYYAMGWYRQAPGKERELVAVITSSDGSTYYADSVKGRFTISRDNAKNTVYLQMNRLKPEDTAVYYCAAAPLWRLASWWDPYRRYDYWGQGTLVTVSS	low polyreactivity
QVQLVESGGGLVQPGGSLRLSCAASGRTFGYNAMGWYRQAPGKERELVAAIRYSGGSTYYADSVKGRFTISRDNAKNTVYLQMNSLKPEDTAVYYCAAYSLFSSYGNDYWGQGTQVTVSS	high polyreactivity
QVQLVESGGGLVQPGGSLRLSCAASGRTIGVYAMGWYRQAPGKERELVAAITTSGDSTYYADSVKGRFTISRDNAKNTVYLQMNSLKPEDTAVYYCAADYYYVYSSFGHYYWGQGTQVTVSS	low polyreactivity
QVQLVESGGGLVQPGGSLRLSCAASGRTYYINAMGWYRQAPGKERELVATISKSGGSTNYADSEKGRFTISRDNAMNTFYLQMNSLKPEDTAVYYCAADTSGGSWGRGRWKFGYWGQGTQVTVSS	high polyreactivity
QVQLVESGGGLVQPGGSLRLSCAASGSIFYWYNMGWYRQAPGKERELVAAINDSGGSTHYADSVKGRFTISRDNEKNTFYLQMNSLKPEDTAVYYCAARKLSSYAYDYWGQGTQVTVSS	low polyreactivity
QVQLVESGGGLVQPGGSLRLSCAASGSTFSGYTMGWYRQAPGKERELVASISSGVSTYYADSVKGRFTISRDNAKNTVYLQMNSLKPEDTAVYYCAADSVGDYGYQVYASWGYEDEYWGQGTQVTVSS	low polyreactivity
QVQLVESGGGLVQPRGSLSLSCAASGYIFDYYDMGWYRPAPGKERELVAAISSSGGTTYYADSVKGRFTISRDNGKNTVYLQMNSLKPEDTAVYYCAAVAVLPRSDYWGQGTQVTVSS	high polyreactivity
QVQLVESGGGLVQSGGSLLLSCAPSGSTFYEYALGGYRQAPGKDRELVAAITSGGSTYYADSVKGRFTISRDNAKNNDYLQMNSLKPEETAVYYCAADPRIRRGDRSTHGYDYWGQGTQVTVSS	low polyreactivity
QVQLVESGGGLVQSGGSLRLSCAASGGTFVPYAMGWDIQAPGKERELVARISKRGGTTYYADSVKGRFTISRDTAKITVYLQMNSLKPEDTAVSSCAAVLPARGYYWGQGTQVTVSS	high polyreactivity
QVQLVESGGGLVQSGGSLRLSCAASGIIFLDYVMVWYRQAPGKERELVAAISLSAGSTNYADSVKGRFTISRDNAKNTVYLQMNSLKPEDTAVYYCAAEVLAVRDDGYRSDEMDYWGQGTQVTVSS	low polyreactivity
QVQLVESGGGLVQSGGSLRLSCAASGRIFRKYVMAWYRPAPGNERELVATISNRVGSTYYADSVKGRFTISRDKAKNTVYLQMNSLKPEDTAVYYCAAVSSYTAYDYWGQGTQVTVSS	high polyreactivity
QVQLVESGGGLVQSGGSLRLSCAASGRTFKYNAMGWYRQAPGKERELVAVIRYSGGTTYYADSVKGRFTISRDNAKNTVYLQMNSLKPEDTAVYYCAADSWSRSVNYYYWGQGTQVTVSS	low polyreactivity
QVQLVESGGGLVQSGGSLRLSCAASGRTYGYNAMGWYRQAPGKERELVAAISRSGDSTYYADSVKGRFTISRDNAKNTVYLQMNSLKPEDTAVYYCATRYVTTGYDYWGQGTQVTVSS	low polyreactivity
QVQLVESGGGLVQSGGSLRLSCAASGSFYYFYSMGWYRQAPGKEREVVAANTDGGSTHYAESVKGRFTISRDNAKNTVYLQMNSMKPEDTAVYSCAAQWHYYLGSGYQYDYWGQGTQVTVSS	low polyreactivity
QVQLVESGGGLVQSGGSLRLSCAASGSIFGSNAMGWYRQAPGKERELVAAISRSGTSTYYADSVKGRFTISRDNAKNTVDLQMTSLKPEDSAVYYSNTAQRYRVYRYDYWGQGTQVTVSS	high polyreactivity
QVQLVESGGGLVQSGGSLRLSCAASGSIFIYYAMGWYRHAPGKERELVAAIDYSGDSTYYADSVKGRFTISRDNAKNTVYLQMNSLKPEDTAVYDCAVYYAGWGDYWGQGTQVTVSS	low polyreactivity
QVQLVESGGGLVQSGGSLRLSCAASGSTFVSNAMGWYRQAPGKERELVAAINGSGGITYYADSVKGRFTISRDNAKNTVYLQMNSLKPEDTAVYYCAAEYDGPSTWVDYYYHYGYWGQGTQVTVSS	low polyreactivity
QVQLVESGGGLVQSGGSLRLSCAASGSTLTFNAMGWYRQAPGKERELVAAISWSDTDTYYADSVKGRFTISRDNAKNTVYLQMNSLKPEDTAVYYCAATLSAYEMDYWGQGTQVTVSS	low polyreactivity
QVQLVESGGGLVQSGGSLRLSCAAYGNFFANNSMGWYRQAPGKERELVAAISQSGGNTYYADSVKGRFTISRDNAKNTVYLQMNSLKPEDTADYYCNAKTYGYNYDSWGQGTQVTVSS	low polyreactivity
QVQLVESGGGLVQSGGSLRLSSAAYGFIFPGNAMGWSRQAPGKEREMVAAISNSGSRTYYADSVKGRFTISRDHAKNTVYLQMNSLKPEDTAVYYCNADVHNRGWPYDYWGQGTQVTVSS	low polyreactivity
QVQLVESGGGLVQSGRSLRLICAASGSTSTQYAMGWYRQAPGKERELVAGITQSGGSTYYADSVKGRFTISRDNAKNTVYLQMNSLKPEDTAVYYCAAPPGYTGRYEYYYWGQGTQVTVSS	high polyreactivity
QVQLVESGGGLVQSRGSLRLSWAASGSTFTYNTMGWYRQAPGKERELVAAISSGGSTYYADSVKGRFTISRDNAKNTVFLQMNSLKPEDTAVYYCAATAQKDSRYGSRYYYWGQGTQVTVSS	high polyreactivity
QVQLVESGGGLVQTGGSLRLSCAASGRIFRSYAMGWNRQAPGKERELVAAISGSGGSTYYADSVKGRFTISRDNAKNTVSLQMNSLKPEDTAVYYCTAGKVHPFSTRFYYWGQGTQVTVSS	low polyreactivity
QVQLVESGGGLVQTGGSLRLSCAASGRILYTNAMGWYRQAPGKERELVAAISSGGRTTYADSVKGRFTISRDNAKNTVYLQMNSLKPEDTAVYYCAAGIRIYGTKRSRGYGYWGQGTQVTVSS	high polyreactivity
QVQLVESGGGLVQTGGSLRLSCAASGSTFYPNTMGWYRQAPGKERELVAAITNGGSTNYADSVKGRFTISRDNAKNTVYLQMNSLKPEDTAVYYCAALYYRFLLGWYKYGYWGQGTQVTVSS	high polyreactivity
QVQLVESGGGLVQVGCSLRLICAASGRTFWWYAMGGYRQAPGKERELVAAISRGSTNYADSVKGRFTISRDNAKNTVYLQMNSLKPEDTAVYYCNAVSLYQSHDYDYWGQGSQVTVSS	low polyreactivity
QVQLVESGGGLVQVGGSLRLSCAASGRTFGRYAMGWYRQAPGKERELVAAINSVARTNYADSVKGRFTISRDNAKNTVYLHMNSLKPEDTAVYYCAARYYYSGVTHAKRIAYYYWGQGTQVTVSS	high polyreactivity
QVQLVESGGGLVQVGGSLRLSCAASGRTVWWYAMGWYRQAPGKERELVAAISRGSTNYADSVKGRFTISRDNAKNTVYLQMNSLKPEDTAVYYCNAVSLYQSHDYDYWGQGTQVTVSS	low polyreactivity
QVQLVESGGGLYQAGGSLRLSSAASGRIFPWNTMGWYRQAPGKERELVAGINNGDRTYYADSVKGRFTISRDNAKNTVYLQMNSQKPEDTAVYYCAVDTWYFLFQYGYYQEGDYWGQGTQVTVSS	low polyreactivity
